# Assay results: article PMC5414288, “^99mTc-radiolabeled GE11-modified peptide for ovarian tumor targeting” (DARU Journal of Pharmaceutical Sciences, 2017)
# Assays:
# [1] = Biodistribution study in normal mice; format: in vivo; conditions: normal female NMRI mice, 1 μg i.v., mean ± SD, n = 4
# Method: Normal female NMRI mice (20–30 g, Mazandaran animal center institute, Sari, Iran) were used in this study and randomly divided into 3 groups of 4. 100 μL of the solution containing 1 μg of the radiolabeled peptide was intravenously injected to the tail vein of each mouse. Mice were euthanized through intraperitoneal injection of ketamine and xylazine at 1, 4 and 24 h after injection. Blood was collected from the heart after deep anesthesia by a syringe which had been washed with heparin. Thereafter, organ samples including; lungs, stomach, liver, kidneys, bone, muscle, salivary glands, heart, spleen and intestines were removed, weighted and the radioactivity of each sample was measured. The tissue uptake of all organs except intestine was calculated as percent of injected dose per gram tissue (% ID/g) and for the intestine was calculated as % ID of the whole sample.
# Stability in human serum = format: in vitro ADME; conditions: fresh human serum (100 μl to 20 μl reaction mixture), 37 °C, 4 h, acetonitrile/ethanol precipitation, RP-HPLC
# Method: Serum stability of the peptide was also determined following addition of 100 μl of fresh human serum to 20 μl of the reaction mixture and incubation for 1 and 4 h at 37 °C. Plasma samples were then treated with 500 μl of a mixture of acetonitrile and ethanol (1:1), centrifuged (14,000 rpm, 6 min), filtered (0.22 μm) and degradation of the radiolabeled peptide was assessed in supernatant by RP-HPLC [24].
# [2] = system: SKOV3 human ovarian cancer xenografts; assay: Biodistribution study in nude mice bearing SKOV3 xenografts; format: in vivo; conditions: female nude mice bearing SKOV3 xenograft, 1 μg i.v.; for Blood uptake / Bone uptake / Heart uptake / Intestine uptake / Kidney uptake / Liver uptake / Lung uptake / Muscle uptake / Spleen uptake / Stomach uptake / Tumor uptake / s.g & Th. (salivary gland and thyroid) uptake: mean ± SD
# Method: The in vivo tumor-targeting of the radiolabeled peptide was studied in female nude mice bearing SKOV3 cancer xenografts. For tumor induction, 10 × 10^6 SKOV3 cells were subcutaneously injected into the right hind leg of nude mice and tumor was allowed to grow for about 4 weeks. In the day of experiment, the average tumor size was 0.63 ± 0.2 g and the mice were randomly divided into three groups of 4 mouse each. The mice were injected intravenously 1 μg of the radiolabelled peptide. At 1 h and 4 h after injection, the mice were sacrificed and the tumor and other tissues were dissected. Blocking experiment was also performed using three nude mice which were subjected to injection of the excess amount (500 μg/50 μl) of the unlabeled peptide 30 min before radioconjugate peptide injection.
# [3] = 4 h p.i., blocked with excess unlabeled peptide (500 μg) 0.5 h before, n = 3
compound,measurement,setting,value
"CC[C@H](C)[C@H](NC(=O)[C@@H](NC(=O)[C@H](CC(N)=O)NC(=O)[C@H](CCC(N)=O)NC(=O)[C@@H]1CCCN1C(=O)[C@@H](NC(=O)[C@H](Cc1ccc(O)cc1)NC(=O)CNC(=O)[C@H](Cc1ccc(O)cc1)NC(=O)[C@H](Cc1c[nH]c2ccccc12)NC(=O)[C@H](Cc1c[nH]cn1)NC(=O)[C@H](Cc1ccc(O)cc1)NC(=O)[C@H](CO)NC(=O)[C@H](CO)NC(=O)[C@H](CO)NC(=O)c1ccc(NN)nc1)[C@@H](C)O)C(C)C)C(=O)O [^99mTc-tricine-HYNIC-SSS-GE11, metal not drawn]",Blood uptake,[1]; 1 h p.i.,0.84 ± 0.04 % ID/g
same,Bone uptake,[1]; 1 h p.i.,0.97 ± 0.14 % ID/g
same,Heart uptake,[1]; 1 h p.i.,0.76 ± 0.16 % ID/g
same,Kidney uptake,[1]; 1 h p.i.,24.5 ± 1.7 % ID/g
same,Liver uptake,[1]; 1 h p.i.,2.88 ± 0.84 % ID/g
same,Lung uptake,[1]; 1 h p.i.,1.14 ± 0.63 % ID/g
same,Muscle uptake,[1]; 1 h p.i.,0.52 ± 0.14 % ID/g
same,Spleen uptake,[1]; 1 h p.i.,0.61 ± 0.14 % ID/g
same,Stomach uptake,[1]; 1 h p.i.,0.91 ± 0.27 % ID/g
same,s.g & Th. (salivary gland and thyroid) uptake,[1]; 1 h p.i.,0.87 ± 0.15 % ID/g
same,Blood uptake,[1]; 4 h p.i.,less than 1 % ID/g
same,Bone uptake,[1]; 4 h p.i.,0.57 ± 0.2 % ID/g
same,Heart uptake,[1]; 4 h p.i.,0.44 ± 0.18 % ID/g
same,Kidney uptake,[1]; 4 h p.i.,17.5 ± 1.25 % ID/g
same,Liver uptake,[1]; 4 h p.i.,2.05 ± 0.39 % ID/g
same,Lung uptake,[1]; 4 h p.i.,0.68 ± 0.23 % ID/g
same,Muscle uptake,[1]; 4 h p.i.,0.23 ± 0.11 % ID/g
same,Spleen uptake,[1]; 4 h p.i.,0.41 ± 0.13 % ID/g
same,Stomach uptake,[1]; 4 h p.i.,0.57 ± 0.15 % ID/g
same,s.g & Th. (salivary gland and thyroid) uptake,[1]; 4 h p.i.,0.46 ± 0.22 % ID/g
same,Blood uptake,"[1]; 4 h p.i., listed as 99mTc-Tricine-HYNIC-SSS-GE11",0.39 ± 0.11 % ID/g
same,Blood uptake,[1]; 24 h p.i.,0.18 ± 0.05 % ID/g
same,Bone uptake,[1]; 24 h p.i.,0.28 ± 0.05 % ID/g
same,Heart uptake,[1]; 24 h p.i.,0.40 ± 0.2 % ID/g
same,Kidney uptake,[1]; 24 h p.i.,3.55 ± 0.38 % ID/g
same,Liver uptake,[1]; 24 h p.i.,0.33 ± 0.069 % ID/g
same,Lung uptake,[1]; 24 h p.i.,0.47 ± 0.09 % ID/g
same,Muscle uptake,[1]; 24 h p.i.,0.19 ± 0.05 % ID/g
same,Spleen uptake,[1]; 24 h p.i.,0.20 ± 0.06 % ID/g
same,Stomach uptake,[1]; 24 h p.i.,0.32 ± 0.19 % ID/g
same,s.g & Th. (salivary gland and thyroid) uptake,[1]; 24 h p.i.,0.36 ± 0.12 % ID/g
same,Stability in human serum,Stability in human serum,96%
same,Blood uptake,"[2]; 1 h p.i., n = 4",2.53 ± 0.51 % ID/g
same,Bone uptake,"[2]; 1 h p.i., n = 4",1.91 ± 0.53 % ID/g
same,Heart uptake,"[2]; 1 h p.i., n = 4",2.40 ± 0.96 % ID/g
same,Intestine uptake,"[2]; 1 h p.i., n = 4",8.38 ± 4.11 % ID/g
same,Kidney uptake,"[2]; 1 h p.i., n = 4",64.95 ± 7.81 % ID/g
same,Liver uptake,"[2]; 1 h p.i., n = 4",6.93 ± 0.95 % ID/g
same,Lung uptake,"[2]; 1 h p.i., n = 4",3.39 ± 0.64 % ID/g
same,Muscle uptake,"[2]; 1 h p.i., n = 4",0.99 ± 0.21 % ID/g
same,Spleen uptake,"[2]; 1 h p.i., n = 4",2.86 ± 0.17 % ID/g
same,Stomach uptake,"[2]; 1 h p.i., n = 4",2.65 ± 0.66 % ID/g
same,Tumor uptake,"[2]; 1 h p.i., n = 4",2.33 ± 0.67 % ID/g
same,s.g & Th. (salivary gland and thyroid) uptake,"[2]; 1 h p.i., n = 4",2.52 ± 0.82 % ID/g
same,Tumor/Blood Ratio,"[2]; 1 h p.i., n = 4",0.92
same,Tumor/Bone Ratio,"[2]; 1 h p.i., n = 4",1.2
same,Tumor/Muscle Ratio,"[2]; 1 h p.i., n = 4",2.3
same,Blood uptake,[2]; [3],0.99 ± 0.18 % ID/g
same,Bone uptake,[2]; [3],1.01 ± 0.11 % ID/g
same,Heart uptake,[2]; [3],0.65 ± 0.1 % ID/g
same,Intestine uptake,[2]; [3],3.83 ± 2.1 % ID/g
same,Kidney uptake,[2]; [3],42.10 ± 4.39 % ID/g
same,Liver uptake,[2]; [3],3.28 ± 0.93 % ID/g
same,Lung uptake,[2]; [3],1.24 ± 0.12 % ID/g
same,Muscle uptake,[2]; [3],0.51 ± 0.07 % ID/g
same,Spleen uptake,[2]; [3],0.83 ± 0.1 % ID/g
same,Stomach uptake,[2]; [3],1.16 ± 0.11 % ID/g
same,Tumor uptake,[2]; [3],0.93 ± 0.10 % ID/g
same,s.g & Th. (salivary gland and thyroid) uptake,[2]; [3],0.89 ± 0.16 % ID/g
same,Tumor/Blood Ratio,[2]; [3],0.96
same,Tumor/Bone Ratio,[2]; [3],0.92
same,Tumor/Muscle Ratio,[2]; [3],1.86
same,Blood uptake,"[2]; 4 h p.i., n = 4",1.43 ± 0.18 % ID/g
same,Bone uptake,"[2]; 4 h p.i., n = 4",1.29 ± 0.29 % ID/g
same,Heart uptake,"[2]; 4 h p.i., n = 4",1.56 ± 0.37 % ID/g
same,Intestine uptake,"[2]; 4 h p.i., n = 4",3.24 ± 0.9 % ID/g
same,Kidney uptake,"[2]; 4 h p.i., n = 4",57.90 ± 0.49 % ID/g
same,Liver uptake,"[2]; 4 h p.i., n = 4",4.64 ± 0.69 % ID/g
same,Lung uptake,"[2]; 4 h p.i., n = 4",1.79 ± 0.34 % ID/g
same,Muscle uptake,"[2]; 4 h p.i., n = 4",0.51 ± 0.14 % ID/g
same,Spleen uptake,"[2]; 4 h p.i., n = 4",1.49 ± 0.32 % ID/g
same,Stomach uptake,"[2]; 4 h p.i., n = 4",1.53 ± 0.16 % ID/g
same,Tumor uptake,"[2]; 4 h p.i., n = 4",1.66 ± 0.41 % ID/g
same,s.g & Th. (salivary gland and thyroid) uptake,"[2]; 4 h p.i., n = 4",1.80 ± 0.21 % ID/g
same,Tumor/Blood Ratio,"[2]; 4 h p.i., n = 4",1.17
same,Tumor/Bone Ratio,"[2]; 4 h p.i., n = 4",1.3
same,Tumor/Muscle Ratio,"[2]; 4 h p.i., n = 4",3.42
